For 36 sequences, IC50 and Kd results are on record in the Immune Epitope Database (IEDB).

The IC50 is the concentration that inhibits the measured activity by half. Higher therefore signals a need for much substance. As usually defined, the Kd is the constant that tells how readily two partners part at equilibrium.

The target in one test is HLA-A*02:01. As to the kind of experiment: IEDB peptide-MHC binding, purified MHC/competitive/fluorescence; ≥ and ≤ were set here for values at or beyond the usual limits of such assays.
A further test has as its target HLA-B*44:02. As to the kind of experiment: IEDB peptide-MHC binding, purified MHC/competitive/radioactivity; filed as Kd, often an IC50 or EC50 that approximates it; ≥ and ≤ were set here for values at or beyond the usual limits of such assays.
For a further test, the target named is HLA-B*44:03. The test is described as above.
In test [1] the target is HLA-B*40:01. The test is described as above.
The next test addresses HLA-B*08:01. Described as above.
A further test has as its target HLA-A*23:01. Described as above.
The target in a further test is HLA-B*53:01. The test is described as above. The conditions noted are these: source organism: Dengue virus 3 Martinique/1243/1999.
Test [2] concerns the target HLA-A*03:01. Described as above. The note with it: source organism: Vaccinia virus WR.
A further test has as its target HLA-A*11:01. Described as above. The conditions noted are these: source organism: Vaccinia virus WR.
In another test the target is HLA-A*29:02. Described as above.
The target in test [3] is HLA-A*31:01. Described as above. The note with it: source organism: Vaccinia virus WR.
A further test concerns the target HLA-A*33:01. Described as above. The note with it: source organism: Vaccinia virus WR.
The target of a further test is HLA-A*68:01. The description is as above. The note with it: source organism: Vaccinia virus WR.
The target of test [4] is HLA-A*31:01. As to the kind of experiment: IEDB peptide-MHC binding, purified MHC/direct/fluorescence; filed as Kd, often an IC50 or EC50 that approximates it; ≥ and ≤ were set here for values at or beyond the usual limits of such assays.
The next test deals with HLA-A*69:01. The test is described as above.
Test [5] concerns the target HLA-B*40:01. The test is described as above. The note with it: source organism: Haemophilus influenzae.
The next test has as its target HLA-B*07:02. Described as above.
In test [6] the target is HLA-A*03:01. The description is as above. The note with it: source organism: Plum pox virus.
Another test addresses HLA-B*57:01. Described as above. The note with it: source organism: Bacillus anthracis str. A0488.
The next test deals with HLA-B*58:01. Described as above. The note with it: source organism: Bacillus anthracis str. A0488.
For another test, the target named is HLA-A*24:02. As to the kind of experiment: IEDB peptide-MHC binding, purified MHC/competitive/radioactivity; filed as Kd, often an IC50 or EC50 that approximates it; ≥ and ≤ were set here for values at or beyond the usual limits of such assays.
The mark [7] stands for this setting: source organism: Sudan ebolavirus.
Setting [8] is: source organism: Dengue virus 2 16681-PDK53.
Where [9] appears, read: source organism: Dengue virus 3 Martinique/1243/1999.
The mark [10] stands for this setting: source organism: Dengue virus 2 Jamaica/1409/1983.
Where [11] appears, read: source organism: Dengue virus 4 Philippines/H241/1956.
Where [12] appears, read: source organism: Zaire ebolavirus.
Setting [13] is: source organism: Vaccinia virus WR.
Where [14] appears, read: source organism: Haemophilus influenzae.
Where [15] appears, read: source organism: Mammarenavirus brazilense.
[16] abbreviates: source organism: Mammarenavirus tacaribeense.

Turning to FFLYDRLAS, the IC50 in the test with HLA-A*02:01 (setting [7]) worked out at 40000 nM. In other words, the double-digit micromolar range.

In the case of NKAWLVHRQW, the Kd with HLA-B*44:02 (setting [8]) came out at 1160 nM; with HLA-B*44:03 (setting [8]) it was 4090 nM.

Consider EELPETMETL, for which the Kd with HLA-B*40:01 [1] (setting [9]) stood at 191 nM. Take HEEPIPMSTY: the Kd is 397 nM in the test with HLA-B*44:02 (setting [10]) and 251 nM with HLA-B*44:03 (setting [10]). In the case of GEYRLRGEAR, the Kd with HLA-B*40:01 [1] (setting [10]) worked out at 1900 nM. Consider KERMVTFKV, for which, in the test with HLA-B*40:01 [1] (setting [11]), the Kd stood at 5760 nM. With INKRKKTSL, the dissociation constant Kd with HLA-B*08:01 (setting [9]) amounted to 18.3 nM. Turning to YSIPATLLVW, the Kd is 70.4 nM with HLA-A*23:01 (setting [9]) and 59.7 nM with HLA-B*53:01. As to VTNSTLEVT, the IC50 in the test with HLA-A*02:01 (setting [7]) was not below 122000 nM. As to SFTVVSNGA, the half-maximal inhibitory concentration (IC50) with HLA-A*02:01 (setting [12]) was not below 372000 nM. On to IIVNNQESNK, for which the Kd with HLA-A*03:01 [2] was 1130 nM; in the test with HLA-A*11:01, 4400 nM; with HLA-A*29:02 (setting [13]) it was not below 68200 nM; in the test with HLA-A*31:01 [3], not below 29900 nM; with HLA-A*33:01 it was not below 36200 nM; in the test with HLA-A*68:01, 3230 nM. With RFEAYGWQV, the Kd was 924 nM with HLA-A*31:01 [4] (setting [14]), 337 nM with HLA-A*69:01 (setting [14]) and 227 nM with HLA-B*40:01 [5].

With SPSKRNQTF, the dissociation constant Kd with HLA-B*07:02 (source organism: Mammarenavirus amapariense) amounted to 66.8 nM. For SENEVKLTIM, the Kd came to 974 nM in the test with HLA-B*40:01 [1] (setting [10]), 23.7 nM with HLA-B*44:02 (setting [10]) and 377 nM in the test with HLA-B*44:03 (setting [10]). As to IRFPRFTRI, the Kd with HLA-B*08:01 (setting [13]) worked out at 1600 nM. In turn, ALFSSCPV returned an IC50 in the test with HLA-A*02:01 (source organism: Mus musculus) of 291 nM. GTMHQEIFR: the Kd in the test with HLA-A*03:01 [6] stood at 83.9 nM; in the test with HLA-A*31:01 [4] (source organism: Plum pox virus) it was 41.9 nM. For EGAFFLYDR, the IC50 with HLA-A*02:01 (setting [12]) is not below 508000 nM. Consider IARQYEQEM, for which the figures for the Kd in the test with HLA-B*57:01 and with HLA-B*58:01 were 515 nM and 15000 nM, respectively. Consider NEMVLLQME, for which the Kd in the test with HLA-B*44:02 (setting [10]) amounted to 907 nM. Consider SEVCDHRLM, for which the Kd came to 303 nM with HLA-B*40:01 [1] (setting [11]), 26 nM with HLA-B*44:02 (setting [11]) and 76.1 nM with HLA-B*44:03 (setting [11]). In the case of RPEAAAGQL, the Kd with HLA-B*07:02 (source organism: Mycobacterium tuberculosis variant bovis BCG str. Pasteur 1173P2) amounted to 179 nM. On to ESMASLKSLY, for which the Kd with HLA-A*03:01 [2] is 7.63 nM; with HLA-A*11:01, 116 nM; with HLA-A*29:02 (setting [13]), not below 71400 nM; in the test with HLA-A*31:01 [3] it was 3190 nM; in the test with HLA-A*33:01 it was 15900 nM; in the test with HLA-A*68:01, 4.63 nM. For the sequence YENLKYSVIV, the Kd with HLA-B*40:01 [1] (source organism: Dengue virus 1 Brazil/97-11/1997) is 70.6 nM. KWKSRLNAL: in the test with HLA-B*08:01 (setting [10]), the Kd was determined as 65.6 nM. In the case of LNGRKRSTI, the Kd in the test with HLA-B*08:01 (source organism: Dengue virus 4 Dominica/814669/1981) was 135 nM. Take LLRKHTLKI: in the test with HLA-B*08:01 (setting [13]), the Kd worked out at 20.8 nM. Take SRSTSLSVSL: the Kd with HLA-B*08:01 (setting [10]) turned out to be 558 nM. Regarding NPVPVGNIY, in the test with HLA-B*07:02 (source organism: Human immunodeficiency virus type 2 (ISOLATE D205,7)), the Kd was not below 40300 nM.

Consider SAKTKISVE, for which the Kd with HLA-B*08:01 (setting [13]) is 238 nM. As to NLTYVQLES, the IC50 with HLA-A*02:01 (setting [12]) worked out at 11000 nM. On to YQPDTGNYIL, for which the Kd was found to be 1720 nM with HLA-A*23:01 (setting [15]), 6000 nM in the test with HLA-A*24:02 (setting [15]) and 5520 nM in the test with HLA-A*29:02 (setting [15]). For IPYHIVNIV, the Kd with HLA-A*69:01 (source organism: Homo sapiens) turned out to be 1340 nM; with HLA-B*07:02 (source organism: Homo sapiens), 3460 nM. Consider AVVIVGLHGV, for which, in the test with HLA-A*02:01 (source organism: Human alphaherpesvirus 1 strain 17), the IC50 is not below 50000 nM. As for LNGRKRSTM, in the test with HLA-B*08:01 (setting [11]), the Kd is 100 nM.

With CWFADKNLI, the Kd in the test with HLA-A*23:01 (setting [16]) was 275 nM; with HLA-A*24:02 (setting [16]) it was 510 nM; with HLA-A*29:02 (setting [16]) it was 3150 nM.
